The RNAGym collection of RNA variant scans (doi:10.1073/pnas.2313332121)

B1: TPR t1 (parent)
chain: GACCAAUCUGCCCUCAGAGCUCGAGAACAUCUUCGGAUGCAGAGGAGGCAGGCUUCGGUGGCGCGAUAGCGCCAACGUCCUCAACCUCCAAUGCAUCCCACCACAUGAUGAUGCCUGAAGAGCCUUGGUUUUUUG

Variants of: B1
Experiment: polymerase ribozyme fitness, log enrichment relative to wild type (log ratio); higher = more active; in vitro selection for triplet polymerase activity
Summary of the method: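 One round of in vitro selection, in triplicate, was applied to PCR-built, transcribed mutant libraries of each subunit of a heterodimeric triplet polymerase ribozyme. The steps were annealing with a biotinylated primer, partner subunit and triplets, incubation frozen at −7 °C, gel excision of extended constructs, streptavidin-bead capture and RT-PCR. Fitness is the logarithm, base 2, of genotype enrichment over wild-type enrichment from inverse-variance-weighted replicate averages of Illumina-sequenced inputs and outputs, keeping genotypes with ≥10 input reads and ≥1 read per output.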

| Variant | polymerase ribozyme fitness (log ratio) |
| --- | --- |
| C8A C22U U129G | -4.85 |
| C8A U59G G107U | -5.05 |
| C8A C53U C114A | 0.0648 |
| C8A G57C C64U C123U U129A U133G | 1.06 |
| C8A A29U | -1.13 |
| C8A C72U A84C | 0.272 |
| C8A C94A | -0.131 |
| U7G C124U | 1.55 |
| U7G G10A C15G G17A A43C C53G C97U | -4.35 |
| C8A G35U G58C | -4.74 |
| U7G G10C C72G C82A | -0.707 |
| U7G G117C | -1.81 |
| C8A A29U A90C | -2.87 |
| C8A G51U | -3.89 |
| C8A C20U A105G U112C G113A | -0.707 |
| C8A C11G U54C U106A | 0.24 |
| U7G C115U | -1.47 |
| C8A G117A A121U | 1.21 |
| U7G G42A G71A | -2.58 |
| C8A A50G A95C | 0.286 |
| C8A C80U C88U U133A | -0.694 |
| U7G G42C G71A C89G | -2.37 |
| C8A C15G A29U | -2.66 |
| C8A C12A C34U G39C G61U C85A | -7.04 |

| Variant | polymerase ribozyme fitness (log ratio) |
| --- | --- |
| U7G G35C U130G | -4.31 |
| C8A C72U U78A G93C C101A | -1.75 |
| C8A C82A A90C | -1.03 |
| C8A G52U G60C A91U U112A A118C U131C | -1.41 |
| U7G G69U C76G A95U | -1.74 |
| C8A C34U | -4.29 |
| C8A U33G A37U | -6.73 |
| C8G A18G G19A A27C | -3.93 |
| C8A C104A G120A | 1.08 |
| U7G G113A | -0.761 |
| C8A G36A G60U C82A G117C U131A G135U | -5.4 |
| C8A G19A C88G A95C | -5.8 |
| C8A C20U A37G | -0.63 |
| C8A A37G C62G C99U G122A | -6.04 |
| U7G G69C A100U | -2.07 |
| C8G A16U | 0.648 |
| C8A A16C G39U C102A | -4.53 |
| C8A A74C G120U | 2.1 |
| C8A G63U A119U | -1.39 |
| C8A A16C G47A C70U G110A U131A | -3.91 |
| U7G G19U G42A G61A | -2.64 |
| U7G G107U A121U G128C | -5.22 |
| C8A C40U | -0.324 |
| C8A A18G U32A G61A C123A | -2.56 |

| Variant | polymerase ribozyme fitness (log ratio) |
| --- | --- |
| C8A A68G C114A | -4.66 |
| C8G A18C A37C C64G A90U U106A C123A U131A | -6.48 |
| U7G G17C G44C G77U C94A | -6 |
| C8A U59G C72G U133G | -3.35 |
| C8A A119G U126G | -0.311 |
| C8A G44U C123U | 0.898 |
| C8A G69A | -1.52 |
| C8A C49A | 0.247 |
| C8A U14G G61U C123A U131A G135U | 1.21 |
| U7G G48A C70A C101A | -2.19 |
| C8A C86G | -1.3 |
| C8A C86U | 0.466 |
| C8A C86A | 0.557 |
| C8A A24G C28A A84C A121U | -3.25 |
| C8G A26U U81A | -3.21 |
| C8A U33A G42U C73U U112A C123A | -5.52 |
| C8A A41U A84G | -2.05 |
| C8G A16U C94A | -0.757 |
| U7G C76U | 0.285 |
| C8A G110U | -0.434 |
| C8A C70U | -0.452 |
| C8A A24G G113A | -3.12 |
| C8A C13A C49G C124G | 1.1 |
| C8A G71U | -0.261 |

| Variant | polymerase ribozyme fitness (log ratio) |
| --- | --- |
| C8A G47A C49G C70A U78C | -3.7 |
| C8A G44U | -0.208 |
| C8A C62A | -0.709 |
| C8A G120C | 1.71 |
| C8A C104U | 0.701 |
| U7G U9A G60U C82U | 0.122 |
| C8A U96C C123A | 1.93 |
| C8A A41U G57A C104A | -5.75 |
| C8A G93C A100C C115U | -4.5 |
| C8A C123G | 2.06 |
| C8A G93U U106A | -0.449 |
| C8A U59A C82A U96A U112A | 0.158 |
| U7G G10C G45A G47A U59G A66C G77A | -2.15 |
| C8A C12U A16U C40A C62U U87A | -1.51 |
| C8A G58A G60A | -0.486 |
| U7G G61U C82G A91C U112C | 0.65 |
| C8A G61C G122A | -0.605 |
| C8A U112A | 1.61 |
| C8A U112G | 0.614 |
| C8A G23A A66G G69U C104U A118G | -5.28 |
| C8A C15A A41C C49A G58U G63U | -3.45 |
| C8A A37U C124A | 1.28 |
| C8A C79U | 0.419 |
| C8A U14C G39U C102G G117A | -6.22 |

| Variant | polymerase ribozyme fitness (log ratio) |
| --- | --- |
| C8A U21A A46U | -1.03 |
| U7G G10A A41G C73G C79A C80A C115A | -3.06 |
| C8A U30A A46C U106C C123U | -5.15 |
| C8A A46U G61A G117C | -2.38 |
| C8A C98U | -1.12 |
| C8A C22U G61A U129G | -4.98 |
| U7G G71U | 0.698 |
| C8A A50C U92C | -1.6 |
| C8A G51C C53A A66U C88A C114A | -6.04 |
| C8A A75G G117A A121U | 1.31 |
| C8A C12A C34U C56G G77A | -2.77 |
| C8G A16G A41G | 0.487 |
| C8A G60A U78A U92C | -1.3 |
| U7G G17A G39A U55A G61A C82G C115A U130C | -1.97 |
| C8G A27G G93U C104A A111U U125C | -4.25 |
| C8A A18C C34G A43U | -7.06 |
| C8A C12A | 0.497 |
| C8A C12U | -0.964 |
| C8A C104U G122A | 0.724 |
| U7G G45C C88A C115A | 2.03 |
| C8A C53G C70U C97U U112A C124U | 0.47 |
| C8A C49A C86U G93U C94U C123A | -0.367 |
| C8A A43U G71C | -2.95 |
| C8A A27C C28U | -4.62 |

| Variant | polymerase ribozyme fitness (log ratio) |
| --- | --- |
| C8A C20A G71U | -2.77 |
| U7G G61A | 0.0552 |
| C8G A26G G57U A119G U130G | -0.722 |
| C8A A103G G110U | -5.33 |
| C8A C56A C72G | -1.07 |
| U7G G52A C85A U87G | -1.55 |
| C8A A74U C115U A118U C124U | -0.848 |
| C8A A37U C86U | -0.337 |
| C8A C13A A27G | -4.58 |
| C8A G45A A90U G117A | -1.14 |
| C8A G45C A105U | -1.9 |
| C8A C13G G61U A84U | -0.177 |
| U7G G69C | -0.478 |
| U7G G69A | -2.34 |
| C8A G44C U106G | -1.03 |
| U7G G52C A90C U130A | -1.64 |
| C8A C49U C73G | -1.1 |
| C8A G52C U81A | -2.06 |
| C8A G93A G117U G128U | -4.74 |
| U7G G77C C97U U109A | -6.1 |
| C8A G39C C53G G61C | -0.548 |
| C8A C80A | -1.88 |
| C8A C70U C72U | -0.317 |
| C8A C89A | -1.24 |

| Variant | polymerase ribozyme fitness (log ratio) |
| --- | --- |
| C8A C114G | -2.41 |
| U7G G48U U59C C86G | -1.39 |
| C8A C12G G23U G71U C86U G120C | -5.74 |
| U7G U14C A29G G42U U59A C123U | -3.3 |
| C8G A16C C62A G71A G120C | -1.27 |
| U7G G63A C98A | -6.38 |
| U7G C88G | -0.456 |
| C8A A83G C104U U129A | -2.16 |
| C8A G52U C89U | -0.556 |
| U7G G65U C72U C73U U112G | -6.23 |
| C8A C40A A43G G60A | -3.37 |
| C8A C40A A43G G60C | -3.55 |
| C8A U92C | -0.565 |
| C8A C12U C13G C98U | -1.16 |
| U7G G52U | -0.337 |
| C8A G71U A84C A95G U109A U126A | -5.61 |
| C8G A16G A90C U96C U112A | 0.488 |
| U7G G36A A50C | -0.431 |
| C8A C124U | 1.95 |
| U7G U54C G58A U92C | -0.551 |
| C8A G52U A91U U112A A118C U131C | -1.36 |
| C8A G63A C98A | -5.9 |
| C8A U78C U106C C114U | -2.11 |
